# Assay results reported in PMC6911355.
# B1: (UG)6 (ssRNA)
# RNA: UGUGUGUGUGUG
# Key:
# [1] = target: TDP-43 102-269 (RRM1-RRM2) (human, UniProt Q13148 102-269); experiment: ALPHA
# [2] = target: TDP-43 1-260 (NTD-RRM1-RRM2) (human, UniProt Q13148 1-260); experiment: ALPHA
# Chain of TDP-43 1-260 (NTD-RRM1-RRM2) (Q13148 1-260): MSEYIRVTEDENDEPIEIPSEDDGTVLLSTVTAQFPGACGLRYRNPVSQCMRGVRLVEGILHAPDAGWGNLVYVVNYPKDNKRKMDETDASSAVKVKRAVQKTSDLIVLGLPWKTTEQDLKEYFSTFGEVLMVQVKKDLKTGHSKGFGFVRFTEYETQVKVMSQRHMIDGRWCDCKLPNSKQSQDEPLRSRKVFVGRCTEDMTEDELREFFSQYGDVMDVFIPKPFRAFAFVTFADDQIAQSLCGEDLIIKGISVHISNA
# Chain of TDP-43 102-269 (RRM1-RRM2) (Q13148 102-269): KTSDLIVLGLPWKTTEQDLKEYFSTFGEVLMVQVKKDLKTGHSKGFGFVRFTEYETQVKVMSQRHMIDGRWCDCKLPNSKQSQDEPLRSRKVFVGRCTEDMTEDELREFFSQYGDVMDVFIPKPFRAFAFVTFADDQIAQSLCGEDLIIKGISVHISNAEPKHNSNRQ
binder,measurement,setting,value
B1,Kd,[1],0.73 ± 0.1 nM
same,Kd,[2],0.4 ± 0.04 nM
